Assay results from publication PMC7176092, “Development of the first in vivo GPR17 ligand through an iterative drug discovery pipeline: A novel disease-modifying strategy for multiple sclerosis” (PLoS ONE, 2020).

Legend:
M5 = biological target: T1, M5 (Homo sapiens, UniProt P08912); test: Binding assay M5; conditions: reference compound
T1 construct: Eurofins Cerep (external service)
T1 sequence (P08912 1-532): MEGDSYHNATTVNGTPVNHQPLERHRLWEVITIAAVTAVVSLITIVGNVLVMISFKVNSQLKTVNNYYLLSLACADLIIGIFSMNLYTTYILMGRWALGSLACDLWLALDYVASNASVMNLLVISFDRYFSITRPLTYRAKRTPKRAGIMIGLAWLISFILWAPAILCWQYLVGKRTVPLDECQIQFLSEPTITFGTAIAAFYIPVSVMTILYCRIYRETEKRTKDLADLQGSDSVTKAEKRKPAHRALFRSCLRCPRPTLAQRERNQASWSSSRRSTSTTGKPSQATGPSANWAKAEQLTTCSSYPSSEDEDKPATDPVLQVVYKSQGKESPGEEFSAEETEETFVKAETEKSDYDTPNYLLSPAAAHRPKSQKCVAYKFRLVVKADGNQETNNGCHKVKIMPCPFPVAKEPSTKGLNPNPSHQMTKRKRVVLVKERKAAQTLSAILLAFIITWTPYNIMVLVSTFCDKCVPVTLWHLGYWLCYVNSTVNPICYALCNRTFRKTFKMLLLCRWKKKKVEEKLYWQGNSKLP

CCR3 = biological target: T2, CCR3 (Homo sapiens, UniProt P51677); test: Cellular functional assay CCR3
T2 sequence (P51677 1-355): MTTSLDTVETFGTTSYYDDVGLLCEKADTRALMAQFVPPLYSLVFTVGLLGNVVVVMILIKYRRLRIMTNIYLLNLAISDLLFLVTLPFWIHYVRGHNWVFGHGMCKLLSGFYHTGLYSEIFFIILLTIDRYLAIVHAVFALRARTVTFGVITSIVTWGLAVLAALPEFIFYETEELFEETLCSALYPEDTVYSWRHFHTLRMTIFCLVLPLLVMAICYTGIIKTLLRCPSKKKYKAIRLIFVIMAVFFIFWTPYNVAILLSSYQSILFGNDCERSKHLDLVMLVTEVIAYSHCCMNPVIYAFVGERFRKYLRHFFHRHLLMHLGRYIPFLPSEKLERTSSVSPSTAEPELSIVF

ADR1A = biological target: T3, ADR1A (Homo sapiens, UniProt P35348); test: Binding assay ADR1A; conditions: reference compound
T3 construct: Eurofins Cerep (external service)
T3 sequence (P35348 1-466): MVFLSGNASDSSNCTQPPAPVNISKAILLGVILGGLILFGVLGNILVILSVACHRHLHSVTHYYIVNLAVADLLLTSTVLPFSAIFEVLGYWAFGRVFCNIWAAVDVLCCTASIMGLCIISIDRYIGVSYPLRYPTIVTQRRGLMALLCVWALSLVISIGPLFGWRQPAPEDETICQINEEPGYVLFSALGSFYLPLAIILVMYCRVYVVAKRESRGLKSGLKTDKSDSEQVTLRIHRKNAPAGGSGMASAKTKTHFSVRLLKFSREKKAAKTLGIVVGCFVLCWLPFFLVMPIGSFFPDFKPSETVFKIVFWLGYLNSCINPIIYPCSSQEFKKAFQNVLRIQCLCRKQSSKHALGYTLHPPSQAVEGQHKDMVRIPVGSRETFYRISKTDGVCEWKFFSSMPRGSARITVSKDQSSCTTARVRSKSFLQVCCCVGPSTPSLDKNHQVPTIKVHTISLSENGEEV

CXCR5 = biological target: T4, CXCR5 (Homo sapiens, UniProt P32302); test: Cellular functional assay CXCR5; conditions: reference agonist
T4 sequence (P32302 1-372): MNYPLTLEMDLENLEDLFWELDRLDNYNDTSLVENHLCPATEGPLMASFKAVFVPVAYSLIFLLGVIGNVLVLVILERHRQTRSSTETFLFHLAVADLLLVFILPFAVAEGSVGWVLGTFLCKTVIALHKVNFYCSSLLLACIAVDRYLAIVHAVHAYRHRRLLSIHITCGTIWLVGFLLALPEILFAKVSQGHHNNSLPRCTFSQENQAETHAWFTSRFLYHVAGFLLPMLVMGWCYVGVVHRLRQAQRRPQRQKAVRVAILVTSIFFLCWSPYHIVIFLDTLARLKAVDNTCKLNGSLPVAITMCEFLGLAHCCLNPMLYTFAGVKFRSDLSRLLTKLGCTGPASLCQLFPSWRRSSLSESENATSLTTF

CXCR3 = biological target: T5, CXCR3 (Homo sapiens, UniProt P49682); test: Cellular functional assay CXCR3; conditions: reference agonist
T5 sequence (P49682 1-368): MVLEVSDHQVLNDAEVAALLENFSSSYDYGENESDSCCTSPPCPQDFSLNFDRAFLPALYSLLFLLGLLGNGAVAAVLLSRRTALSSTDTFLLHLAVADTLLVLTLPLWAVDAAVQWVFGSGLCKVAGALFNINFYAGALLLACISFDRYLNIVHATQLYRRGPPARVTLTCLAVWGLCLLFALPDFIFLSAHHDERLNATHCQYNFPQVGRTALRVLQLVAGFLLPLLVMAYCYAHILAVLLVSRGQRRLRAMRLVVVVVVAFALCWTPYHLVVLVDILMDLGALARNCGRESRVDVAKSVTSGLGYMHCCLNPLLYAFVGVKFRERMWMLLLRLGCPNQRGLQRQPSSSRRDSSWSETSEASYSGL

P2Y = test: Binding assay P2Y; design: species or system human; conditions: reference compound
CXCR1 = biological target: T6, CXCR1 (Homo sapiens, UniProt P25024); test: Cellular functional assay CXCR1; conditions: reference agonist
T6 sequence (P25024 1-350): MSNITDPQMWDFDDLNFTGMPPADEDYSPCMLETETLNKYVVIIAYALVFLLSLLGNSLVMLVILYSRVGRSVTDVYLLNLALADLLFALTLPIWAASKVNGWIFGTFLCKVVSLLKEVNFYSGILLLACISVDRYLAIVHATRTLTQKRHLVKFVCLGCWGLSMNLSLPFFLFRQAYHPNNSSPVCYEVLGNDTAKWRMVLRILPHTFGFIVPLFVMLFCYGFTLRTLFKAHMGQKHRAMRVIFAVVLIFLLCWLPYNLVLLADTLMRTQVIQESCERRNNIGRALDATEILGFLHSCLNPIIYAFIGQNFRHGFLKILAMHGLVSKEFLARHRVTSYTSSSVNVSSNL

CCR9 = biological target: T7, CCR9 (Homo sapiens, UniProt P51686); test: Cellular functional assay CCR9; conditions: reference agonist
T7 sequence (P51686 1-369): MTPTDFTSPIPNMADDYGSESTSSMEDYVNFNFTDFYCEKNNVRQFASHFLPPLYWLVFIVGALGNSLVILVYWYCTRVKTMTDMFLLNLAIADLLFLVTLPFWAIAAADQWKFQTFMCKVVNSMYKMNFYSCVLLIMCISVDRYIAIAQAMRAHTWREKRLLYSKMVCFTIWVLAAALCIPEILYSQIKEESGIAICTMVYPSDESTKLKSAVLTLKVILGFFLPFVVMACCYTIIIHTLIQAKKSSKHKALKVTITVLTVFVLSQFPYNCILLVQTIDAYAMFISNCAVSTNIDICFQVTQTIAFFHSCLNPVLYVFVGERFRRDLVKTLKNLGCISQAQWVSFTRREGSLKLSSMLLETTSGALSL

CCR10 = biological target: T8, CCR10 (Homo sapiens, UniProt P46092); test: Cellular functional assay CCR10; conditions: reference agonist
T8 sequence (P46092 1-362): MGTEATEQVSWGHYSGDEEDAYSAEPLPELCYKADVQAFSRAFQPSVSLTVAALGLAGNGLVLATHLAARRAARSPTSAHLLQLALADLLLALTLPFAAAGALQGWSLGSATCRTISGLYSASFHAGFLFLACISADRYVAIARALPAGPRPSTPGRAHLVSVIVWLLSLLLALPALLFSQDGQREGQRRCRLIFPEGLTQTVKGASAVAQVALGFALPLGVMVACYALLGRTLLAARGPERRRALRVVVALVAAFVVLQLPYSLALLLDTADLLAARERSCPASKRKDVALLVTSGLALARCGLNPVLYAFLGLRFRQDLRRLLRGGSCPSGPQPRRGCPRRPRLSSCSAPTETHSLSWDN

CXCR4 = CXCR4 (Homo sapiens, UniProt P61073); test: Cellular functional assay CXCR4; conditions: reference antagonist
Chain of CXCR4 (P61073 whole entry): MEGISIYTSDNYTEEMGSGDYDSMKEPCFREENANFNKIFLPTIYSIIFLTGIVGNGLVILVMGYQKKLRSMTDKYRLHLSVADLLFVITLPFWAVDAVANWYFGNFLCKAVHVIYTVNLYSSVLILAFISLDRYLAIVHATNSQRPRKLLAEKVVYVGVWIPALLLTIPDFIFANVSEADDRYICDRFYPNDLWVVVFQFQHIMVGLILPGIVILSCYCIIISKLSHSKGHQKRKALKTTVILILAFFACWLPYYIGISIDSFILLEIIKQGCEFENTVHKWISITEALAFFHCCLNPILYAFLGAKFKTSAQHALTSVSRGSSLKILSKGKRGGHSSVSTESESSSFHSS

CX3CR1 = biological target: T9, CX3CR1 (Homo sapiens, UniProt P49238); test: Cellular functional assay CX3CR1; conditions: reference agonist
T9 sequence (P49238 1-355): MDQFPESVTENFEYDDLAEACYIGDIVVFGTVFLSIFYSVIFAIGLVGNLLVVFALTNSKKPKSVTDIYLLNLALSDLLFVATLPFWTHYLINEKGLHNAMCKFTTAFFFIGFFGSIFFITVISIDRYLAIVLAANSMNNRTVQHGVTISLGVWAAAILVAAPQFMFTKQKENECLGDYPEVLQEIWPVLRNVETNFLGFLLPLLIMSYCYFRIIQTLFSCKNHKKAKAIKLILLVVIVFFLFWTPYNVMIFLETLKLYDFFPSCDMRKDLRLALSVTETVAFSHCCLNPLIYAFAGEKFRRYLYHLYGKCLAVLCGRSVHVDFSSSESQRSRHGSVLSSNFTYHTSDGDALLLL

CXCR6 = CXCR6 (Homo sapiens, UniProt O00574); test: Cellular functional assay CXCR6; conditions: reference agonist
Chain of CXCR6 (O00574 whole entry): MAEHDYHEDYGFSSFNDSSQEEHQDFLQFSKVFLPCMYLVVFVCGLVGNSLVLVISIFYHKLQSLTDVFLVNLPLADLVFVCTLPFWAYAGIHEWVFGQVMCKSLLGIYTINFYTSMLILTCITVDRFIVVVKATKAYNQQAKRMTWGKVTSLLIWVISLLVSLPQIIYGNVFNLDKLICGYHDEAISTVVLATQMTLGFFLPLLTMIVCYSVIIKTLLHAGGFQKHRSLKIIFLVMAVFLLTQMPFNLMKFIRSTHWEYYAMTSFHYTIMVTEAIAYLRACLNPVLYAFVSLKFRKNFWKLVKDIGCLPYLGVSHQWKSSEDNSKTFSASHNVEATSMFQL

Molecule: C[N+]1(C)CCC(OC(=O)C(c2ccccc2)c2ccccc2)CC1 [Compound 4-DAMP, 4-DAMP, reference compound]
- IC50 (M5): 0.73 nM
- Ki (M5): 0.37 nM

Molecule: CC[N+]1(C/C2=C/CCCCCC2)CCC(NC(=O)C2c3cc(Cl)ccc3Oc3ccc(Cl)cc32)CC1 (stereo not drawn) [Compound J113863, J113863, reference compound]
- IC50 (CCR3; reference antagonist): 8.9 nM

Molecule: COc1cccc(OC)c1OCCNCC1COc2ccccc2O1 (stereo not drawn) [WB 4101, reference compound]
- IC50 (ADR1A): 0.39 nM

Molecule: CXCL13/BLC/BCA-1: chemokine, reference agonist for CXCR5
- EC50 (CXCR5): 3.8 nM

Molecule: I-TAC: chemokine, reference agonist for CXCR3
- EC50 (CXCR3): 2.3 nM

Molecule: dATPS [reference compound]
- IC50 (P2Y): 51 nM
- Ki (P2Y): 25 nM

Molecule: rhIL-8: recombinant chemokine, reference agonist for CXCR1
- EC50 (CXCR1): 4.7 nM

B1: CCL25: chemokine, reference agonist for CCR9 (protein, UniProt O15444 24-150, looked up)
C-C motif chemokine 25: QGVFEDCCLAYHYPIGWAVLRRAWTYRIQEVSGSCNLPAAIFYLPKRHRKVCGNPKSREVQRAMKLLDARNKVFAKLHHNTQTFQAGPHAVKKLSSGNSKLSSSKFSNPISSSKRNVSLLISANSGL
- EC50 (CCR9): 2 nM

B2: eotaxin 2: chemokine, reference agonist for CCR3 (protein, UniProt O00175 27-119, looked up)
C-C motif chemokine 24: VVIPSPCCMFFVSKRIPENRVVSYQLSSRSTCLKAGVIFTTKKGQQFCGDPKQEWVQRYMKNLDAKQKKASPRARAVAVKGPVQRYPGNQTTC
- EC50 (CCR3; reference agonist): 6.4 nM

B3: CTACK/CCL27: chemokine, reference agonist for CCR10 (protein, UniProt Q9Y4X3 25-112, looked up)
C-C motif chemokine 27: FLLPPSTACCTQLYRKPLSDKLLRKVIQVELQEADGDCHLQAFVLHLAQRSICIHPQNPSLSQWFEHQERKLHGTLPKLNFGMLRKMG
- EC50 (CCR10): 5 nM

B4: MIP-II: reference antagonist for CXCR4 (protein)
chain: LGASWHRPDKCCLGYQKRPLPQVLLSSWYPTSQLCSKPGVIFLTKRGRQVCADKSKDWVKKLMQQLPVTAR
- IC50 (CXCR4): 150 nM

B5: CX3CL1: chemokine, reference agonist for CX3CR1 (protein, UniProt P78423 25-397, looked up)
Fractalkine: QHHGVTKCNITCSKMTSKIPVALLIHYQQNQASCGKRAIILETRQHRLFCADPKEQWVKDAMQHLDRQAAALTRNGGTFEKQIGEVKPRTTPAAGGMDESVVLEPEATGESSSLEPTPSSQEAQRALGTSPELPTGVTGSSGTRLPPTPKAQDGGPVGTELFRVPPVSTAATWQSSAPHQPGPSLWAEAKTSEAPSTQDPSTQASTASSPAPEENAPSEGQRVWGQGQSPRPENSLEREEMGPVPAHTDAFQDWGPGSMAHVSVVPVSSEGTPSREPVASGSWTPKAEEPIHATMDPQRLGVLITPVPDAQAATRRQAVGLLAFLGLLFCLGVAMFTYQSLQGCPRKMAGEMAEGLRYIPRSCGSNSYVLVPV
- EC50 (CX3CR1): 2.2 nM

B6: CXCL16: chemokine, reference agonist for CXCR6 (protein, UniProt Q9H2A7 30-254, looked up)
C-X-C motif chemokine 16: NEGSVTGSCYCGKRISSDSPPSVQFMNRLRKHLRAYHRCLYYTRFQLLSWSVCGGNKDPWVQELMSCLDLKECGHAYSGIVAHQKHLLPTSPPISQASEGASSDIHTPAQMLLSTLQSTQRPTLPVGSLSSDKELTRPNETTIHTAGHSLAAGPEAGENQKQPEKNAGPTARTSATVPVLCLLAIIFILTAALSYVLCKRRRGQSPQSSPDLPVHYIPVAPDSNT
- EC50 (CXCR6): 1.6 nM
